Results as given in patent publication US20200055896.

How the values were obtained:
[1] = target: T1, GP probe: fluorescence-quenched peptide of the region flanking the C-terminal human FGF21 cleavage site (VGPSQG)
T1 chain: VGPSQGK

[2] = target: ANPFAP, internally-quenched FRET peptide substrate for FAP (Li et al. 2012)
[3] = target: EP probe: fluorescence-quenched peptide of the homologous region of murine FGF21

B1: FAP in mouse plasma (protein)
chain: IVLRPSRVYKPEGNTKRALTLKDILNGTFSYKTYFPNWISEQEYLHQSEDDNIVFYNIETRESYIILSNSTMKSVNATDYGLSPDRQFVYLESDYSKLWRYSYTATYYIYDLQNGEFVRGYELPRPIQYLCWSPVGSKLAYVYQNNIYLKQRPGDPPFQITYTGRENRIFNGIPDWVYEEEMLATKYALWWSPDGKFLAYVEFNDSDIPIIAYSYYGDGQYPRTINIPYPKAGAKNPVVRVFIVDTTYPHHVGPMEVPVPEMIASSDYYFSWLTWVSSERVCLQWLKRVQNVSVLSICDFREDWHAWECPKNQEHVEESRTGWAGGFFVSTPAFSQDATSYYKIFSDKDGYKHIHYIKDTVENAIQITSGKWEAIYIFRVTQDSLFYSSNEFEGYPGRRNIYRISIGNSPPSKKCVTCHLRKERCQYYTASFSYKAKYYALVCYGPGLPISTLHDGRTDQEIQVLEENKELENSLRNIQLPKVEIKKLKDGGLTFWYKMILPPQFDRSKKYPLLIQVYGGPCSQSVKSVFAVNWITYLASKEGIVIALVDGRGTAFQGDKFLHAVYRKLGVYEVEDQLTAVRKFIEMGFIDEERIAIWGWSYGGYVSSLALASGTGLFKCGIAVAPVSSWEYYASIYSERFMGLPTKDDNLEHYKNSTVMARAEYFRNVDYLLIHGTADDNVHFQNSAQIAKALVNAQVDFQAMWYSDQNHGISSGRSQNHLYTHMTHFLKQCFSLSD
- cleavage of the GP probe in mouse plasma, with cpd60 and KYP-2047 [1]: FAP is the major enzyme responsible for the cleavage of the GP probe in plasma

B2: Human prolyl oligopeptidase (PREP, 4308-SE) (protein)
chain: MLSLQYPDVYRDETAVQDYHGHKICDPYAWLEDPDSEQTKAFVEAQNKITVPFLEQCPIRGLYKERMTELYDYPKYSCHFKKGKRYFYFYNTGLQNQRVLYVQDSLEGEARVFLDPNILSDDGTVALRGYAFSEDGEYFAYGLSASGSDWVTIKFMKVDGAKELPDVLERVKFSCMAWTHDGKGMFYNSYPQQDGKSDGTETSTNLHQKLYYHVLGTDQSEDILCAEFPDEPKWMGGAELSDDGRYVLLSIREGCDPVNRLWYCDLQQESSGIAGILKWVKLIDNFEGEYDYVTNEGTVFTFKTNRQSPNYRVINIDFRDPEESKWKVLVPEHEKDVLEWIACVRSNFLVLCYLHDVKNILQLHDLTTGALLKTFPLDVGSIVGYSGQKKDTEIFYQFTSFLSPGIIYHCDLTKEELEPRVFREVTVKGIDASDYQTVQIFYPSKDGTKIPMFIVHKKGIKLDGSHPAFLYGYGGFNISITPNYSVSRLIFVRHMGGILAVANIRGGGEYGETWHKGGILANKQNCFDDFQCAAEYLIKEGYTSPKRLTINGGSNGGLLVAACANQRPDLFGCVIAQVGVMDMLKFHKYTIGHAWTTDYGCSDSKQHFEWLVKYSPLHNVKLPEADDIQYPSMLLLTADHDDRVVPLHSLKFIATLQYIVGRSRKQSNPLLIHVDTKAGHGAGKPTAKVIEEVSDMFAFIARCLNVDWIP
- cleavage of quenched-FRET peptide, 10 nM enzyme [2]: both FAP and PREP efficiently cleave ANPFAP in vitro
- cleavage of fluorescence-quenched peptide (FRET-quench assay), 1 nM enzyme [1]: both enzymes readily cleaved the GP peptide

B3: N-terminal octa-His-tagged mouse FAP protein containing the extracellular domain (residues L26-D761) (protein)
chain: LRPSRVYKPEGNTKRALTLKDILNGTFSYKTYFPNWISEQEYLHQSEDDNIVFYNIETRESYIILSNSTMKSVNATDYGLSPDRQFVYLESDYSKLWRYSYTATYYIYDLQNGEFVRGYELPRPIQYLCWSPVGSKLAYVYQNNIYLKQRPGDPPFQITYTGRENRIFNGIPDWVYEEEMLATKYALWWSPDGKFLAYVEFNDSDIPIIAYSYYGDGQYPRTINIPYPKAGAKNPVVRVFIVDTTYPHHVGPMEVPVPEMIASSDYYFSWLTWVSSERVCLQWLKRVQNVSVLSICDFREDWHAWECPKNQEHVEESRTGWAGGFFVSTPAFSQDATSYYKIFSDKDGYKHIHYIKDTVENAIQITSGKWEAIYIFRVTQDSLFYSSNEFEGYPGRRNIYRISIGNSPPSKKCVTCHLRKERCQYYTASFSYKAKYYALVCYGPGLPISTLHDGRTDQEIQVLEENKELENSLRNIQLPKVEIKKLKDGGLTFWYKMILPPQFDRSKKYPLLIQVYGGPCSQSVKSVFAVNWITYLASKEGIVIALVDGRGTAFQGDKFLHAVYRKLGVYEVEDQLTAVRKFIEMGFIDEERIAIWGWSYGGYVSSLALASGTGLFKCGIAVAPVSSWEYYASIYSERFMGLPTKDDNLEHYKNSTVMARAEYFRNVDYLLIHGTADDNVHFQNSAQIAKALVNAQVDFQAMWYSDQNHGISSGRSQNHLYTHMTHFLKQCFSLSD
- catalytic efficiency (Michaelis-Menten kinetics) [1]: mouse FAP exhibited a lower catalytic efficiency than human FAP, mainly due to a reduced kcat
- cleavage of fluorescence-quenched peptide (FRET-quench assay) [1]: purified recombinant mouse FAP protein cleaved the GP but not GG or EP probes
- cleavage of fluorescence-quenched peptide (FRET-quench assay) [3]: purified recombinant mouse FAP protein cleaved the GP but not GG or EP probes
